PMC3005984, “Identification and Partial Characterization of an L-Tyrosine Aminotransferase (TAT) from Arabidopsis thaliana” (Biochemistry Research International, 2010)

Experiments:
Format in all cases: biochemical, Arabidopsis thaliana
[1] = substrate: N[C@@H](CCC(=O)O)C(=O)O; assay: reverse assay, coupled to 2-ketoglutarate dehydrogenase, NADH at A340, nonlinear regression; details: amino acceptor at saturation (acceptor for this constant only in supplement), 100 mM HEPES-NaOH pH 8.2, 30°C
From the text: (§1) reverse assay, coupled to 2-ketoglutarate dehydrogenase, NADH at A340, nonlinear regression on At5g36160 (L-tyrosine aminotransferase, TAT)

[2] = substrate: O=C(O)C(=O)Cc1ccc(O)cc1; assay: as above; details: amino donor glutamate at saturation, 100 mM HEPES-NaOH pH 8.2, 30°C
From the text: as §1

[3] = substrate: O=C(O)C(=O)Cc1ccccc1; assay: as above; details: amino donor glutamate at saturation, 100 mM HEPES-NaOH pH 8.2, 30°C
From the text: as §1

[4] = substrate: N[C@@H](Cc1ccc(O)cc1)C(=O)O; assay: forward assay, 4-hydroxyphenylpyruvate at A331, nonlinear regression; details: acceptor 2-ketoglutarate at saturation, 100 mM HEPES-NaOH pH 8.2, 30°C
From the text: forward assay, 4-hydroxyphenylpyruvate at A331, nonlinear regression on At5g36160 (L-tyrosine aminotransferase, TAT)

[5] = substrate: O=C(O)CCC(=O)C(=O)O; assay: forward assay, product absorbance, nonlinear regression; details: amino donor at saturation (donor for this constant only in supplement), 100 mM HEPES-NaOH pH 8.2, 30°C
From the text: forward assay, product absorbance, nonlinear regression on At5g36160 (L-tyrosine aminotransferase, TAT)

[6] = substrate: N[C@@H](Cc1ccccc1)C(=O)O; assay: forward assay, phenylpyruvate at A320, nonlinear regression; details: acceptor 2-ketoglutarate at saturation, 100 mM HEPES-NaOH pH 8.2, 30°C
From the text: forward assay, phenylpyruvate at A320, nonlinear regression on At5g36160 (L-tyrosine aminotransferase, TAT)

B1: At5g36160 (L-tyrosine aminotransferase, TAT) (Arabidopsis thaliana) (protein)
chain: MGENGAKRWNFGANEVVERSNSLTIRDYLNTLINCLDGGDVRPVIPLGHGDPSPFPSFRTDQAAVEAICDAVRSTKFNNYSSSSGVPVARKAVAEYLSSDLSYQISPNDVHITAGCVQAIEILISALAIPGANILLPRPTYPMYDSRAAFCQLEVRYFDLLPENGWDVDLDGVEALADDKTVAILVINPCNPCGNVFSRQHLQKIAETACKLGILVIADEVYDHFAFGDKPFVSMAEFAELVPVIVLGAISKRWFVPGWRLGWMVTLDPHGIMKDSGFVQTLINVVNMSTDPATFIQGAMPDIIGNTKEEFFSSKLEMVKKCAEICYEELMKIPCITCPCKPEGSMFTMVKLNFSLLEDISDDLDFCSKLAKEESMIILPGQAVGLKNWLRITFAVELELLIEGFSRLKNFTERHSKNQP
notes: full-length cDNA in pET30a, N-terminal His6 and S-tag kept, E. coli BL21-CodonPlus-RIPL, Talon purified, about 52 kDa on SDS-PAGE; EC 2.6.1.5
Km [1]: 1.4 ± 0.16 mM | kcat [1]: 6.1 s⁻¹ | Km [2]: 0.22 ± 0.05 mM | kcat [2]: 6.1 s⁻¹ | Km [3]: 0.13 ± 0.06 mM | kcat [3]: 6.1 s⁻¹ | Km [4]: 0.19 ± 0.16 mM | kcat [4]: 0.08 s⁻¹ | Km [5]: 1.2 ± 0.27 mM | kcat [5]: 0.08 s⁻¹ | Km [6]: 0.84 ± 0.2 mM | kcat [6]: 0.08 s⁻¹
